According to US20230399376A1 (BAKER HEART AND DIABETES INSTITUTE, published 2023):

How the values were obtained:
[1] = target: GPIIb/IIIa on non-activated (resting) human platelets (human, UniProt P08514 32-1039; P05106 27-788); assay: flow cytometry on human platelets, anti-Penta-His Alexa Fluor 488 detection
Protocol: (§1) Binding of scFv-CD39 to activated human platelets was evaluated by flow cytometry: 0.1 mg/mL of scFv-CD39, 0.2 mg/mL of scFvₘᵤₜ-CD39 (both activity matched), and 0.038 mg/mL of anti-CD41 scFv (equimolar amount of the scFv in scFv-CD39) were tested.
(§2) Citrated blood from volunteers was centrifuged at 180 g for 10 minutes. The platelet-rich plasma (PRP) was collected and stored at 37° C. The remainder (infranatant) was centrifuged at 2500 g for 10 minutes, and its supernatant was collected as platelet-poor plasma (PPP).
(§3) PRP was diluted 1:20 in phosphate-buffered saline (PBS; 100 mg/L calcium chloride, 100 mg/L magnesium chloride). To investigate the binding of scFv-CD39 constructs, the diluted PRP ([…]) was either preincubated with a final concentration of […] ADP or […] of PBS for 15 minutes before addition of the constructs. The binding was then determined via a Penta-His Alexa Fluor-488-conjugated monoclonal antibody (Qiagen). To investigate the ecto-nucleoside triphosphate diphosphohydrolase efficiency, PRP was preincubated with scFv-CD39 constructs before administration of […] ADP. Platelet activation status was measured by a phycoerythrin (PE)-labeled anti-P-selectin antibody (BD Bioscience). Samples were fixed using […] Cellfix (BD Bioscience) and analyzed on a FACS Calibur (BD Bioscience).

[2] = target: T1, activated glycoprotein GPIIb/IIIa on ADP-activated human platelets (human, UniProt P08514 32-1039; P05106 27-788); assay: flow cytometry on ADP-activated human platelets, anti-Penta-His Alexa Fluor 488 detection
T1 construct: also called integrin alphaIIbbeta3
T1 sequence (P08514 32-1039 limits assumed, chain 1 of 2): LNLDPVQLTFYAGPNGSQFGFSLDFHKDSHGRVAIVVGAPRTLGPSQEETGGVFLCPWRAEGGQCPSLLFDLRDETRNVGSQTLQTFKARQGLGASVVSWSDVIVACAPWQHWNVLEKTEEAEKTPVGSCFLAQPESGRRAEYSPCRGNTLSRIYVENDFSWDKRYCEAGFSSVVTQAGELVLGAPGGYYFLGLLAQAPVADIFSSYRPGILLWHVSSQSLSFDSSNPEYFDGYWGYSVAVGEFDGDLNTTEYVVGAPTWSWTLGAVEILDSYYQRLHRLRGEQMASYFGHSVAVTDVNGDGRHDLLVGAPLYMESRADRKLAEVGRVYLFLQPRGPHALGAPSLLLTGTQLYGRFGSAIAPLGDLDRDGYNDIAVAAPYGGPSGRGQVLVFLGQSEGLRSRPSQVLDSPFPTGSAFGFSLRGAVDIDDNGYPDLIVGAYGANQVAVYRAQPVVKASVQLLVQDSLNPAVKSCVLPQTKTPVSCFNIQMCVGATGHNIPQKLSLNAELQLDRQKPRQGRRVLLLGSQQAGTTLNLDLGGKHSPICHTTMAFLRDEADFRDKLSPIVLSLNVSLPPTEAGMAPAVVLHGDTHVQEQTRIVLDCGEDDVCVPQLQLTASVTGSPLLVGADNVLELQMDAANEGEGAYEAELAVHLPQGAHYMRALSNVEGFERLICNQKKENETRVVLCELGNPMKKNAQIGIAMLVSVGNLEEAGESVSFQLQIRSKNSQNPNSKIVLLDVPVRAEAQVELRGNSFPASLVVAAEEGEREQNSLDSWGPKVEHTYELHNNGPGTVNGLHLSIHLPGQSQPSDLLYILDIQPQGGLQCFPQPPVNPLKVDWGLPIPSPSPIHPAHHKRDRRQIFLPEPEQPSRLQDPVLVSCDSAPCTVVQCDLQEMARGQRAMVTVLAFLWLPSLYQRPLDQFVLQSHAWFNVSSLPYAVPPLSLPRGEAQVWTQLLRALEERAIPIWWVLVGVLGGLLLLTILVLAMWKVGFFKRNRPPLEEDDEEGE
T1 sequence (P05106 27-788 limits assumed, chain 2 of 2): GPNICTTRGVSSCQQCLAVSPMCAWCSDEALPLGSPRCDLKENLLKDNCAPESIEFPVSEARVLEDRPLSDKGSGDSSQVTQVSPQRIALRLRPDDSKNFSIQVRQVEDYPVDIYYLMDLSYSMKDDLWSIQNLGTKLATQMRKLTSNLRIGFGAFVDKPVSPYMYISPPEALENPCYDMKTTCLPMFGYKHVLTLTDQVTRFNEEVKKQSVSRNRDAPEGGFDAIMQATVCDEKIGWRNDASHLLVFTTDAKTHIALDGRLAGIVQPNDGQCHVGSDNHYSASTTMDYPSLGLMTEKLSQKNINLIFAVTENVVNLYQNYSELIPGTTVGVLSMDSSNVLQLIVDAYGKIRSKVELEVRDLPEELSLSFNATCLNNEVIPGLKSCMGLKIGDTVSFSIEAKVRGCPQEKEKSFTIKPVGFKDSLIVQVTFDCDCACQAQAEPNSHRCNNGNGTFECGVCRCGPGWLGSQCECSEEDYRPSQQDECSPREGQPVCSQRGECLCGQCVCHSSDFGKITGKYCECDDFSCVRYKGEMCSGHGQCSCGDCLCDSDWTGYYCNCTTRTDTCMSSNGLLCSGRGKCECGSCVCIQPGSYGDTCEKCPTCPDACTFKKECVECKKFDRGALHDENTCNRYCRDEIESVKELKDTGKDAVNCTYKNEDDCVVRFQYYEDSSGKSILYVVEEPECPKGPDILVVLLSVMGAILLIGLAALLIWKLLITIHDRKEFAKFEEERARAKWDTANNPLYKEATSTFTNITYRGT
Protocol: as §1, §2, §3

Sequence of GPIIb/IIIa on non-activated (resting) human platelets (P08514 32-1039 limits assumed, chain 1 of 2): as the sequence (P08514 32-1039 limits assumed, chain 1 of 2) above
Sequence of GPIIb/IIIa on non-activated (resting) human platelets (P05106 27-788 limits assumed, chain 2 of 2): as the sequence (P05106 27-788 limits assumed, chain 2 of 2) above

binding result [1]: no binding (tested: 0.2 mg/mL)
binding result [2]: no binding (tested: 0.2 mg/mL)
B1: scFvmut-CD39 (scFv)
chain: HHHHHHHHRRAVRSLVPSSDPLQCGGILAEVQLVQSGAEVNKPGASVKVSCKASGYTFTGYYMHWVRQAPGQGLEWMGWINPNSGGTNYAQKFQGWVTMTRDTSISTAYMELSRLRSDDTAVYYCARGRALYNANDRSPNWFDPWGQGTLVTVSSGSASAPTLKLEEGEFSEARVQAVLTQPPSVSVAPGQTARITCGGNNIGSKSVQWYQQKPGQAPVLVVYDDSDRPSGIPERFSGSNSGNMATLTISRVEAGDEADYYCQVWDSSSDHVVFGGGTKLTVLGGKPIPNPLLGLDSTLPETGGLEEAAATQNKALPENVKYGIVLDAGSSHTSLYIYKWPAEKENDTGVVHQVEECRVKGPGISKFVQKVNEIGIYLTDCMERAREVIPRSQHQETPVYLGATAGMRLLRMESEELADRVLDVVERSLSNYPFDFQGARIITGQEEGAYGWITINYLLGKFSQKTRWFSIVPYETNNQETFGALDLGGASTQVTFVPQNQTIESPDNALQFRLYGKDYNVYTHSFLCYGKDQALWQKLAKDIQVASNEILRDPCFHPGYKKVVNVSDLYKTPCTKRFEMTLPFQQFEIQGIGNYQQCHQSILELFNTSYCPYSQCAFNGIFLPPLQGDFGAFSAFYFVMKFLNLTSEKVSQEKVTEMMKKFCAQPWEEIKTSYAGVKEKYLSEYCFSGTYILSLLLQGYHFTADSWEHIHFIGKIQGSDAGWTLGYMLNLTNMIPAEQPLSTPLSHSTTRGGPEQKLISEEDLNSAVDHHHHHH
notes: Non-targeting control construct; also called non-targ-CD39; Non-targCD39; not shown: 6xHis-tag used for detection
